{"source": "patent US20170202908A1", "about": "(ASAHI GROUP, published 2017)", "target": "T1, Fc-mUmod, fusion protein of the mouse Umod protein (positions 1-616 of SEQ ID NO: 8) and the Fc domain of … (mouse; human, UniProt Q91X17 25-616)", "T1 construct": "Secreted from HEK293T cells, purified on protein A and immobilized on a 96-well plate; Positions 1-616 are the cloned range and start at the initiator Met; also called uromodulin; not shown: Fc domain of human IgG1", "T1 sequence (Q91X17 25-616)": "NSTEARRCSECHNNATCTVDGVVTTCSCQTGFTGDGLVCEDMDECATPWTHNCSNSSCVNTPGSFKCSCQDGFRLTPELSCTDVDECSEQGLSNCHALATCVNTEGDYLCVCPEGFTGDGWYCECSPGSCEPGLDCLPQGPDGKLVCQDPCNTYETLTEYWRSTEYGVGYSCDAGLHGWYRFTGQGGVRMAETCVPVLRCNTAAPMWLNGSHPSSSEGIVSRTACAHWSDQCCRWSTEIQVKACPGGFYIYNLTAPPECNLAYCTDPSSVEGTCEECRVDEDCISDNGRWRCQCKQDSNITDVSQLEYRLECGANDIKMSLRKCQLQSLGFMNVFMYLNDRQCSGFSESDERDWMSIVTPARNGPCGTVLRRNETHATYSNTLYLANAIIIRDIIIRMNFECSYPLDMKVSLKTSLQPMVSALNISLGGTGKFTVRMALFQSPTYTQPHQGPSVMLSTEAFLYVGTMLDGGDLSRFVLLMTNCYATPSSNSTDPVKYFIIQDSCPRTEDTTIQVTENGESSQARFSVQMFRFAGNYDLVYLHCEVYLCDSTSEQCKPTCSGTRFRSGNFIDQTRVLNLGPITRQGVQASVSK", "test": "whole bacterial cells on plate-immobilized Fc-mUmod; bound cells counted by 16S rRNA real-time PCR, hIgG background subtracted", "protocol": "Next, the Fc-mUmod protein and hIgG as a control Fc protein were respectively diluted with PBS so as to result in a concentration of 5 μg/ml, and the resultants were applied to a 96-well plate (50 μl per well) and immobilized at 4° C. overnight. Each well was washed three times with 200 μl of PBS. Then, a 1% BSA/PBS solution (200 μl) was applied thereto for blocking at room temperature for 2 hours. Then, the blocking solution was removed. Thereafter, bacterial cells of each test lactic acid bacterium, which had been suspended in PBS so as to result in a concentration of 10⁶ cells/50 μl, were applied thereto (50 μl per well) and incubated at room temperature for 2 hours. Each well was washed five times with 200 μl of PBS and then PBS was completely removed.\nDNA was extracted from bacterial cells bound to each plate using NucleoSpin™ Tissue (Takara) in accordance with the provided protocol. Real-time PCR was performed using the extracted DNA as a template and universal primers targeting the 16S rRNA gene (F: 5′-[…]-3′ (SEQ ID NO: 12), R: 5′-[…]-3′ (SEQ ID NO: 13)). The number of bacterial cells bound to Fc-mUmod and the number of bacterial cells bound to hIgG were quantitatively determined in accordance with the protocol provided with SYBR™ Premix Ex Taq™ II (Tli RNaseH Plus) (Takara).", "data": [{"binder": "S-layer protein A (SlpA protein) of the Lactobacillus acidophilus strain L-92 (other, In the assays SlpA stood on the surface of whole L-92 bacterial cells, not as an isolated protein; also called surface layer protein (SlpA)) AVSTVSAATTINASSSAINTNTNAKYDVDVTPSVSAVAANTANNTPAIAGNLTGTISASYNGKTYTANLKADTENATITAAGSTTAVKPAELAAGVAYTVTVNDVSFNFGSENAGKTVTLGSANSNVKFTGTNSDNQTETNVSTLKVKLDQNGVASLTNVSIANVYAINTTDNSNVNFYDVTSGATVTNGAVSVNADNQGQVNVANVVAAINSKYFAAQYADKKLNTRTANTEDAIKAALKDQKIDVNSVGYFKAPHTFTVNVKATSNTNGKSATLPVVVTVPNVAEPTVASVSKRIMHNAYYYDKDAKRVGTDSVKRYNSVSVLPNTTTINGKTYYQVVENGKAVDKYINAANIDGTKRTLKHNAYVYASSKKRANKVVLKKGEVVTTYGASYTFKNGQKYYKIGDNTDKTYVKVANFR", "values": [{"measurement": "binding result", "value": "binds"}]}]}
